Measured values from article PMC3713010, “Sox2 Transcriptionally Regulates Pqbp1, an Intellectual Disability-Microcephaly Causative Gene, in Neural Stem Progenitor Cells”.

T1: Brn2 DNA-binding domain (BD-Brn2) (Mus musculus (B6), UniProt P31360 336-435)
T1 sequence: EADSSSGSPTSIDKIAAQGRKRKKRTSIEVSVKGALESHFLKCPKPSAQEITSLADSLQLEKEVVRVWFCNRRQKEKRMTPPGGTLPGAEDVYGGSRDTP

T2: Oct6 DNA-binding domain (BD-Oct6) (Mus musculus (B6), UniProt P21952 317-416)
T2 sequence: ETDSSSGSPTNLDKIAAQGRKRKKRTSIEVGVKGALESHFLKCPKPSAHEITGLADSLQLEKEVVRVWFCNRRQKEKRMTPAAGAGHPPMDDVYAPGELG

B1: 55 (dsDNA)
DNA 1: GGGGGGTAGATTATTTGTCCACCATTCACAAGCACTGAGTTCAATAACCCCCC
DNA 2: GGGGGGTTATTGAACTCAGTGCTTGTGAATGGTGGACAAATAATCTACCCCCC
B2: 56 (dsDNA)
DNA 1: GGGGGACACTTATACAATAATAGTATTTATTAATAGTATCCCCC
DNA 2: GGGGGATACTATTAATAAATACTATTATTGTATAAGTGTCCCCC
B3: 64 (dsDNA)
DNA 1: GGGGGATATATGCACAAACACTCATTTACATAAAATAACCCCC
DNA 2: GGGGGTTATTTTATGTAAATGAGTGTTTGTGCATATATCCCCC
B4: 61 (dsDNA)
DNA 1: GGGGGTAAATTTTTCTAATCCTGACAAATCTCTTCACCCCC
DNA 2: GGGGGTGAAGAGATTTGTCAGGATTAGAAAAATTTACCCCC
B5: 57 (dsDNA)
DNA 1: GGGGGCCTAAGATTCTTAATCTGACATTGTAGTCCCTACCCCC
DNA 2: GGGGGTAGGGACTACAATGTCAGATTAAGAATCTTAGGCCCCC
B6: 60 (dsDNA)
DNA 1: GGGGGAATTTAATTTTGTCTCTACCTTTCACGCTTCTCCTTTGCATTTTCCCCCC
DNA 2: GGGGGGAAAATGCAAAGGAGAAGCGTGAAAGGTAGAGACAAAATTAAATTCCCCC
B7: 74 (dsDNA)
DNA 1: GGGGGGACTTTCTTGGCGGATTTGGTAACGACAAAGTTAGGATCCCCC
DNA 2: GGGGGATCCTAACTTTGTCGTTACCAAATCCGCCAAGAAAGTCCCCCC
B8: 79 (dsDNA)
DNA 1: GGGGGTGATAGTAACAAAAACCATTTTGTTTTTGGCTCCCCC
DNA 2: GGGGGAGCCAAAAACAAAATGGTTTTTGTTACTATCACCCCC
B9: 65 (dsDNA)
DNA 1: GGGGGGTACTTGGTGATAATTTCATTGTCCACATGCCCCCC
DNA 2: GGGGGGCATGTGGACAATGAAATTATCACCAAGTACCCCCC
B10: 66 (dsDNA)
DNA 1: GGGGGGGAACTCCCTTAAATTTGGTTTGTTTATGTGTCCCCC
DNA 2: GGGGGACACATAAACAAACCAAATTTAAGGGAGTTCCCCCCC
B11: 75 (dsDNA)
DNA 1: GGGGGGCTCTGGGTATAATTAACAATAAAATGCACCCCC
DNA 2: GGGGGTGCATTTTATTGTTAATTATACCCAGAGCCCCCC
B12: 62 (dsDNA)
DNA 1: GGGGGTTTAAACAATTGTCCCATTCATTATATTGCAACACCCCC
DNA 2: GGGGGTGTTGCAATATAATGAATGGGACAATTGTTTAAACCCCC
B13: 59 (dsDNA)
DNA 1: GGGGGAGCTTTTAACAATTTAATTTTGTCTCTACCTCCCCC
DNA 2: GGGGGAGGTAGAGACAAAATTAAATTGTTAAAAGCTCCCCC
B14: 72 (dsDNA)
DNA 1: GGGGGGTTTGTTTTTTAAGGAACTGTAATGAACAAATGTCAGGACCCCC
DNA 2: GGGGGTCCTGACATTTGTTCATTACAGTTCCTTAAAAAACAAACCCCCC
B15: 67 (dsDNA)
DNA 1: GGGGGGCATATGCATTGTCTGTGTATTCTAAATGTATCCCCC
DNA 2: GGGGGATACATTTAGAATACACAGACAATGCATATGCCCCCC
B16: 77 (dsDNA)
DNA 1: GGGGGTATGTCTATTTGTTTTTTATTTTTTGAAGACTCCCCC
DNA 2: GGGGGAGTCTTCAAAAAATAAAAAACAAATAGACATACCCCC
B17: 76 (dsDNA)
DNA 1: GGGGGCAGGTATGATTGTCCATATTGCTAATAAACCCCCC
DNA 2: GGGGGGTTTATTAGCAATATGGACAATCATACCTGCCCCC
B18: 81 (dsDNA)
DNA 1: GGGGGAGAGTGCTGGTATTAAAAGGCACAAACTTTCTTTCCCCC
DNA 2: GGGGGAAAGAAAGTTTGTGCCTTTTAATACCAGCACTCTCCCCC
B19: 73 (dsDNA)
DNA 1: GGGGGCTTGTCCTCAGCATCTATGGTAACACACAAATCCTGAAGCCCCC
DNA 2: GGGGGCTTCAGGATTTGTGTGTTACCATAGATGCTGAGGACAAGCCCCC
B20: 58 (dsDNA)
DNA 1: GGGGGTGAGATGGAGGAAATAAGTCTTATTGTTGTTCTCCCCCCC
DNA 2: GGGGGGGAGAACAACAATAAGACTTATTTCCTCCATCTCACCCCC
B21: 78 (dsDNA)
DNA 1: GGGGGTCTTTTGATTTGTCCGATTTAGGTTTTAAACCCCC
DNA 2: GGGGGTTTAAAACCTAAATCGGACAAATCAAAAGACCCCC
B22: 69 (dsDNA)
DNA 1: GGGGGACAAGTGATTTGTCCTTATCACATAGCTAGGAAAAGGGAATCCCCC
DNA 2: GGGGGATTCCCTTTTCCTAGCTATGTGATAAGGACAAATCACTTGTCCCCC
B23: 68 (dsDNA)
DNA 1: GGGGGTTTGTTTGTTTGTTTAAAGGATTTATTTATTTATCCCCC
DNA 2: GGGGGATAAATAAATAAATCCTTTAAACAAACAAACAAACCCCC
B24: 80 (dsDNA)
DNA 1: GGGGGCATCCCAAATTGTTTTCTCACTTTTGTACCACAGATAGATCCCCC
DNA 2: GGGGGATCTATCTGTGGTACAAAAGTGAGAAAACAATTTGGGATGCCCCC
B25: 63 (dsDNA)
DNA 1: GGGGGAGAAATCCTCAATTTCCTTATCCACAAAATGGACATTTTCCTAGTACCTCCCCC
DNA 2: GGGGGAGGTACTAGGAAAATGTCCATTTTGTGGATAAGGAAATTGAGGATTTCTCCCCC

target: T1, Brn2 DNA-binding domain (BD-Brn2); test: EMSA; 10% glycerol, 20 mM HEPES pH 7.8, 45 mM KCl, 10 mM NaCl, 1 mM EDTA, 1 mM DTT, 0.2 ug/uL BSA, 0.1% NP-40, 50 ng poly-dIdC; 20 ng each GST protein; room temperature 30 min (heterodimers 4 C); 6% PAGE 0.25x TBE; conditions: protein: recombinant; tags: GST (N-terminal, pGEX-6P-1); label: 32P-dCTP fill-in of the 5' (dG)5 overhangs of both strands (Methods; control probes are given with GGG)
Summary of the method: (§1)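 Candidate cis-element oligonucleotides were annealed, labelled with 32P-dCTP and tested against GST-tagged transcription factor DNA-binding domains made in E. coli BL21 and purified on glutathione-sepharose. For each binding reaction, 20 ng protein was combined with 40,000–50,000 cpm probe and 50 ng poly-dIdC in HEPES/KCl glycerol buffer containing BSA and detergent for 30 min at room temperature. Gels of 6% polyacrylamide in 0.25×TBE were run at 4°C, and band radioactivity was measured on a BAS4000 imager. The readout for DNA binding was the band signal in the expected shift region.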

Row | Binder | binding result
1 | B1 | no binding
2 | B2 | binds
3 | B3 | binds
4 | B4 | no binding
5 | B5 | no binding
6 | B6 | binds
7 | B7 | no binding
8 | B8 | no binding
9 | B9 | binds
10 | B10 | no binding
11 | B11 | binds
12 | B12 | binds
13 | B13 | binds
14 | B14 | binds
15 | B15 | no binding
16 | B16 | no binding
17 | B17 | binds
18 | B18 | no binding
19 | B19 | no binding
20 | B20 | no binding
21 | B21 | no binding
22 | B22 | no binding
23 | B23 | binds
24 | B24 | no binding
25 | B25 | no binding

target: T2, Oct6 DNA-binding domain (BD-Oct6); test: as above; conditions: protein: recombinant; tags: GST (N-terminal, pGEX-6P-1); label: 32P-dCTP fill-in of the 5' (dG)5 overhangs of both strands (Methods; control probes are given with GGG)
Summary of the method: as §1

Row | Binder | binding result
26 | B1 | binds
27 | B2 | binds
28 | B3 | binds
29 | B4 | binds
30 | B5 | binds
31 | B6 | binds
32 | B7 | no binding
33 | B8 | no binding
34 | B9 | binds
35 | B10 | binds
36 | B11 | binds
37 | B12 | binds
38 | B13 | binds
39 | B14 | binds
40 | B15 | no binding
41 | B16 | no binding
42 | B17 | binds
43 | B18 | no binding
44 | B19 | no binding
45 | B20 | binds
46 | B21 | binds
47 | B22 | binds
48 | B23 | binds
49 | B24 | binds
50 | B25 | binds

target: Pax6 DNA-binding domain (BD-Pax6) (Mus musculus (B6), UniProt P63015 190-289); test: as above; conditions: protein: recombinant; tags: GST (N-terminal, pGEX-6P-1); label: 32P-dCTP fill-in of the 5' (dG)5 overhangs of both strands (Methods; control probes are given with GGG)
Sequence (P63015 190-289): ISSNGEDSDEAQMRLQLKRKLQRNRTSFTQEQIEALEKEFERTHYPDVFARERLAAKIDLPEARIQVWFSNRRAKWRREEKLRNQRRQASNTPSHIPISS
Summary of the method: as §1

Row | Binder | binding result
51 | B1 | no binding
52 | B2 | binds
53 | B3 | binds
54 | B4 | binds
55 | B5 | binds
56 | B6 | binds
57 | B7 | no binding
58 | B8 | no binding
59 | B9 | binds
60 | B10 | binds
61 | B11 | binds
62 | B12 | binds
63 | B13 | binds
64 | B14 | binds
65 | B15 | no binding
66 | B16 | no binding
67 | B17 | binds
68 | B18 | no binding
69 | B19 | no binding
70 | B20 | no binding
71 | B21 | no binding
72 | B22 | no binding
73 | B23 | binds
74 | B24 | no binding
75 | B25 | binds
